Substitutions are numbered along the chain they refer to.
T1: CTLA-4 fusion protein (R&D Biosystems) (human, UniProt P16410 37-162)
T1 sequence (looked up): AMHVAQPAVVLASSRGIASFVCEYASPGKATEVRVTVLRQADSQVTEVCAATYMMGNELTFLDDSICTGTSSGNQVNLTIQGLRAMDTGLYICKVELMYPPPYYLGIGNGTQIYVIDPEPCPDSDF

T2: ICOS fusion protein (R&D Biosystems) (human, UniProt Q9Y6W8 21-141)
T2 sequence (looked up): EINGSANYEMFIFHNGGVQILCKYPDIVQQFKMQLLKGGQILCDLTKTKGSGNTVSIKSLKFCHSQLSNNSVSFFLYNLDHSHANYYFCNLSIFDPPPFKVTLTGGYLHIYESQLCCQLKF

B1: anti-PD-1 human monoclonal antibody 17D8 (antibody, V domains shown)
VH: QVQLVESGGDVVQPGGSLRLSCAASGVAFSNYGMHWVRQAPGKGLEWVAVIWYDGSNKYYADSVKGRFTISRDNSKNMLYLQMNSLRAEDTAMYYCARNDDYWGQGTLVTVSS
VL: EIVLTQSPATLSLSPGERATLSCRASQSVSSYLAWYQQKPGQAPRLIIYDASNRATGIPARFSGSGSGTDFTLTISSLEPEDFAVYYCQQRSNWPLTFGGGTKVEIK
notes: Fully human IgG with kappa light chain from a hybridoma (HuMab/KM mice)
B2: anti-PD-1 human monoclonal antibody 2D3 (antibody, V domains shown)
VH: QVQLVESGGDVVQPGRSLRLSCAASGLTFTNYGFHWVRQAPGKGLEWVAVIWYDGSKKYYADSVKGRFTISRDNSKNTLYLQMNNLRAEDTAVYYCATGDDYWGQGTLVTVSS
VL: B1 VL with I47L, A51T
notes: Fully human IgG with kappa light chain from a hybridoma
B3: anti-PD-1 human monoclonal antibody 7D3 (antibody, V domains shown)
VH: B2 VH with D10G, A23T, A24T, L27I, T30S, N31S, I70L, N74D, N85S, A97V
VL: B1 VL with I47L
notes: as for B2
B4: anti-PD-1 human monoclonal antibody 4H1 (antibody, V domains shown)
VH: QVYLVESGGGVVQPGRSLRLSCAASGFTFSNYGMHWVRQAPGKGLEWVALIWYDGSNKYYADSVKGRFTISRDNSKNTLYLQMTSLRVEDTAVYYCASNVDHWGQGTLVTVSS
VL: B1 VL with I47L, R91S, L96R, G100Q
notes: as for B2
B5: anti-PD-1 human monoclonal antibody 5C4 (antibody, V domains shown)
VH: QVQLVESGGGVVQPGRSLRLDCKASGITFSNSGMHWVRQAPGKGLEWVAVIWYDGSKRYYADSVKGRFTISRDNSKNTLFLQMNSLRAEDTAVYYCATNDDYWGQGTLVTVSS
VL: B1 VL with I47L, R91S, L96R, G100Q
notes: Fully human IgG with kappa light chain from a hybridoma; also called 5C4-IgG1; 5C4-IgG4
B6: anti-PD-1 human monoclonal antibody 4A11 (antibody, V domains shown)
VH: QLQLQESGPGLVKPSETLSLTCTVSGGSLSRSSFFWGWIRQPPGKGLEWIGSIYYSGSTYYNPSLKSRVTISVDTSKNQFSLKLSSVTAADTAVYYCVRDYDILTGDEDYWGQGTLVTVSS
VL: DIQMTQSPSSLSASVGDRVSITCRASQGISSWLAWYQQKPEKAPKSLIYAASNLRSGVPSRFSGSGSGTDFTLTISSLQPEDFATYYCQQYYSYPRTFGQGTKVEIK
notes: as for B2
B7: anti-PD-1 human monoclonal antibody 5F4 (antibody, V domains shown)
VH: B6 VH with T23S, F34Y, G51A, Y54F, S58E, Y61F, K77R, V98A
VL: B6 VL with S20T, N53S, R55Q
notes: as for B2

Columns and labels:
[1] = biological target: T3, cynomolgus monkey cell surface PD-1 (cynomolgus monkey, UniProt B0LAJ3 25-288); assay: flow cytometry on activated cynomolgus monkey PBMC, FITC-labeled anti-human IgG, MFI
T3 construct: also called cynomolgous monkey PD-1
Experimental: (§1) Activated human T-cells, monkey peripheral blood mononuclear cells (PBMC), and CHO cells transfected with PD-1 were each tested for antibody binding. Human T cells and cynomolgous PBMC were activated by […] to induce PD-1 expression on T cells prior to binding with a human anti-PD-1 monoclonal antibody. […] The cells were washed and binding was detected with a FITC-labeled anti-human IgG Ab. Flow cytometric analyses were performed using a FACScan flow cytometry (Becton Dickinson, San Jose, Calif.).

[2] = biological target: T4, human PD-1 expressed at the cell surface (human, UniProt Q15116 25-288); assay: flow cytometry on CHO cells transfected with human PD-1, FITC-labeled anti-human IgG, MFI
T4 construct: whole, on cells; also called hPD-1; CHO hPD-1 cells
Experimental: as §1

[3] = biological target: T1, CTLA-4 fusion protein (R&D Biosystems); assay: ELISA on CTLA-4 fusion protein, goat anti-human IgG (kappa) HRP
Experimental: (§2) A comparison of the binding of anti-PD-1 antibodies to CD28 family members was performed by standard ELISA using four different CD28 family members to examine the specificity of binding for PD-1.
(§3) Standard ELISA procedures were performed. The anti-PD-1 human monoclonal antibodies were added at a concentration of 20 μg/ml. Goat-anti-human IgG (kappa chain-specific) polyclonal antibody conjugated with horseradish peroxidase (HRP) was used as secondary antibody.

[4] = biological target: T2, ICOS fusion protein (R&D Biosystems); assay: ELISA on ICOS fusion protein, goat anti-human IgG (kappa) HRP
Experimental: as §2, §3

[5] = biological target: T5, CD28 fusion protein (R&D Biosystems) (human, UniProt P10747 19-152); assay: ELISA on CD28 fusion protein, goat anti-human IgG (kappa) HRP
Experimental: as §2, §3

[6] = biological target: T4, human PD-1 expressed at the cell surface; assay: flow cytometry on activated human T cells, FITC-labeled anti-human IgG, MFI
Experimental: as §1

[7] = biological target: T6, purified recombinant human PD-1 fusion protein (human, UniProt Q15116 25-170); assay: Biacore SPR; PD-1 fusion protein on CM5 chip, antibody at 267 nM
T6 construct: extracellular domain; Made in CHO cells; amine-coupled to a CM5 chip for Biacore
Experimental: Anti-PD-1 antibodies were characterized for affinities and binding kinetics by Biacore analysis (Biacore AB, Uppsala, Sweden). Purified recombinant human PD-1 fusion protein was covalently linked to a CM5 chip (carboxy methyl dextran coated chip) via primary amines, using standard amine coupling chemistry and kit provided by Biacore. Binding was measured by flowing the antibodies in HBS EP buffer (provided by Biacore AB) at a concentration of 267 nM at a low rate of 50 μl/min. The antigen-antibody association kinetics was followed for 3 minutes and the dissociation kinetics was followed for 7 minutes. The association and dissociation curves were fit to a 1:1 Langmuir binding model using BIAevaluation software (Biacore AB). To minimize the effects of avidity in the estimation of the binding constants, only the initial segment of data corresponding to association and dissociation phases were used for fitting.

[8] = biological target: T1, CTLA-4 fusion protein (R&D Biosystems); assay: standard ELISA on fusion proteins
Experimental: as §2, §3

[9] = biological target: T5, CD28 fusion protein (R&D Biosystems); assay: standard ELISA on fusion proteins
Experimental: as §2, §3

[10] = biological target: T2, ICOS fusion protein (R&D Biosystems); assay: standard ELISA on fusion proteins
Experimental: as §2, §3

[11] = biological target: T4, human PD-1 expressed at the cell surface; assay: flow cytometry blocking assay on CHO/hPD-1 cells: antibody first, then FITC-labeled PD-L1 fusion protein as the blocked ligand, MFI
Experimental: (§4) PD-1 expressing CHO cells were suspended in FACS buffer (PBS with 4% fetal calf serum). […] Flow cytometric analyses were performed using a FACScan flowcytometer (Becton Dickinson, San Jose, Calif.).

[12] = biological target: T4, human PD-1 expressed at the cell surface; assay: flow cytometry blocking assay on CHO/PD-1 cells: antibody first, then FITC-labeled PD-L2 fusion protein as the blocked ligand, MFI
Experimental: as §4

T6 sequence (Q15116 25-170): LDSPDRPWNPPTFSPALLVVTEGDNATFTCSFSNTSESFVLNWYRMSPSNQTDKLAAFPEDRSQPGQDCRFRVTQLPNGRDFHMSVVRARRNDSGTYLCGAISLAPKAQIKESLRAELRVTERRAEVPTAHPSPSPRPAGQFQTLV
T5 sequence (P10747 19-152): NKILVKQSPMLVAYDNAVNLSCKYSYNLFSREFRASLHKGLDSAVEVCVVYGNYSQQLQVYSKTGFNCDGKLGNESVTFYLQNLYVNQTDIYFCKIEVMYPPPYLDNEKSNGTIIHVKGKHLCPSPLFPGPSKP
T3 sequence (B0LAJ3 entry or part of it limits assumed): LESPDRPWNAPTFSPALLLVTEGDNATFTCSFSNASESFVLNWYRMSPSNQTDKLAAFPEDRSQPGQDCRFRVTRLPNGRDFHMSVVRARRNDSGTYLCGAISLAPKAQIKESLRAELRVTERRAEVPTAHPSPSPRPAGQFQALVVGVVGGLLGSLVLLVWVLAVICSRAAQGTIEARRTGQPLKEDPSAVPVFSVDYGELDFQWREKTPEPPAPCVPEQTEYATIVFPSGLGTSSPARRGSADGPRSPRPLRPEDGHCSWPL
T4 sequence (Q15116 25-288): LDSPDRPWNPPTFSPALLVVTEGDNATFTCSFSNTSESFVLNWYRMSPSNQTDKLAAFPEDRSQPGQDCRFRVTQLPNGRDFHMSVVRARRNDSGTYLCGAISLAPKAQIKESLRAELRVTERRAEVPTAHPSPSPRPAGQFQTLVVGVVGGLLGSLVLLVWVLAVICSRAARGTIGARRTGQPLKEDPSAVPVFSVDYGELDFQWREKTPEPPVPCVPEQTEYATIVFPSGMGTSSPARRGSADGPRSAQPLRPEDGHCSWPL

Row | Binder | EC50 (read off the curve) [1] | EC50 (read off the curve) [2] | binding result [3] | binding result [4] | binding result [5] | EC50 (read off the curve) [6] | Kd [7] | koff [7] | kon [7] | binding result [8] | binding result [9] | binding result [10] | IC50 (read off the curve) [11] | IC50 (read off the curve) [12]
1 | B1 | ~3 nM | ~10 nM | no binding (tested: 20 µg/ml) | no binding (tested: 20 µg/ml) | no binding (tested: 20 µg/ml) | ~2 nM | 0.16 nM | 4.5e-05 s⁻¹ | 256000 M⁻¹ s⁻¹ | – | – | – | – | –
2 | B2 | ~1 nM | – | no binding (tested: 20 µg/ml) | no binding (tested: 20 µg/ml) | no binding (tested: 20 µg/ml) | ~0.7 nM | 1.2 nM | 0.000452 s⁻¹ | 377000 M⁻¹ s⁻¹ | – | – | – | – | –
3 | B3 | – | – | – | – | – | – | – | – | – | no binding (tested: 20 µg/ml) | no binding (tested: 20 µg/ml) | no binding (tested: 20 µg/ml) | – | –
4 | B4 | ~0.9 nM | ~3 nM | no binding (tested: 20 µg/ml) | no binding (tested: 20 µg/ml) | no binding (tested: 20 µg/ml) | ~0.6 nM | – | – | – | – | – | – | ~2 nM | –
5 | B5 | ~1 nM | – | no binding (tested: 20 µg/ml) | no binding (tested: 20 µg/ml) | – | – | – | – | – | – | – | – | – | –
6 | B6 | – | ~10 nM | no binding (tested: 20 µg/ml) | no binding (tested: 20 µg/ml) | no binding (tested: 20 µg/ml) | – | 0.13 nM | 9.9e-06 s⁻¹ | 76000 M⁻¹ s⁻¹ | – | – | – | – | ~8 nM
7 | B7 | – | – | – | – | – | – | – | – | – | no binding (tested: 20 µg/ml) | no binding (tested: 20 µg/ml) | no binding (tested: 20 µg/ml) | – | –

From US20150165025A1 (ONO PHARMACEUTICAL, published 2015)
